Measured values taken from publication PMC8097366, “The Dual Function of KDM5C in Both Gene Transcriptional Activation and Repression Promotes Breast Cancer Cell Growth and Tumorigenesis” (Advanced Science, 2021).

Target: T1, HA-tagged KDM5C, full length (UniProt P41229 1-1560)
T1 construct: KDM5C (JARID1C, SMCX), histone demethylase; the truncations run to residue 1560; KDM5C was sub-cloned into pCDH-3×Flag-3×HA-EF1-puro and into pLV-EF1-puro(cs2.0)-N-3×HA; also called HA-KDM5C; KDM5C FL; source: HEK293T, transfected, in lysate, nuclear extract or cytosolic extract; HEK293T, purified on anti-HA agarose
Test: co-IP; cytosolic extracts from transfected HEK293T cells; IP with anti-HA antibody; immunoblotting
Conditions: partners not purified

T1 sequence (P41229 whole entry, the tested form may be a part): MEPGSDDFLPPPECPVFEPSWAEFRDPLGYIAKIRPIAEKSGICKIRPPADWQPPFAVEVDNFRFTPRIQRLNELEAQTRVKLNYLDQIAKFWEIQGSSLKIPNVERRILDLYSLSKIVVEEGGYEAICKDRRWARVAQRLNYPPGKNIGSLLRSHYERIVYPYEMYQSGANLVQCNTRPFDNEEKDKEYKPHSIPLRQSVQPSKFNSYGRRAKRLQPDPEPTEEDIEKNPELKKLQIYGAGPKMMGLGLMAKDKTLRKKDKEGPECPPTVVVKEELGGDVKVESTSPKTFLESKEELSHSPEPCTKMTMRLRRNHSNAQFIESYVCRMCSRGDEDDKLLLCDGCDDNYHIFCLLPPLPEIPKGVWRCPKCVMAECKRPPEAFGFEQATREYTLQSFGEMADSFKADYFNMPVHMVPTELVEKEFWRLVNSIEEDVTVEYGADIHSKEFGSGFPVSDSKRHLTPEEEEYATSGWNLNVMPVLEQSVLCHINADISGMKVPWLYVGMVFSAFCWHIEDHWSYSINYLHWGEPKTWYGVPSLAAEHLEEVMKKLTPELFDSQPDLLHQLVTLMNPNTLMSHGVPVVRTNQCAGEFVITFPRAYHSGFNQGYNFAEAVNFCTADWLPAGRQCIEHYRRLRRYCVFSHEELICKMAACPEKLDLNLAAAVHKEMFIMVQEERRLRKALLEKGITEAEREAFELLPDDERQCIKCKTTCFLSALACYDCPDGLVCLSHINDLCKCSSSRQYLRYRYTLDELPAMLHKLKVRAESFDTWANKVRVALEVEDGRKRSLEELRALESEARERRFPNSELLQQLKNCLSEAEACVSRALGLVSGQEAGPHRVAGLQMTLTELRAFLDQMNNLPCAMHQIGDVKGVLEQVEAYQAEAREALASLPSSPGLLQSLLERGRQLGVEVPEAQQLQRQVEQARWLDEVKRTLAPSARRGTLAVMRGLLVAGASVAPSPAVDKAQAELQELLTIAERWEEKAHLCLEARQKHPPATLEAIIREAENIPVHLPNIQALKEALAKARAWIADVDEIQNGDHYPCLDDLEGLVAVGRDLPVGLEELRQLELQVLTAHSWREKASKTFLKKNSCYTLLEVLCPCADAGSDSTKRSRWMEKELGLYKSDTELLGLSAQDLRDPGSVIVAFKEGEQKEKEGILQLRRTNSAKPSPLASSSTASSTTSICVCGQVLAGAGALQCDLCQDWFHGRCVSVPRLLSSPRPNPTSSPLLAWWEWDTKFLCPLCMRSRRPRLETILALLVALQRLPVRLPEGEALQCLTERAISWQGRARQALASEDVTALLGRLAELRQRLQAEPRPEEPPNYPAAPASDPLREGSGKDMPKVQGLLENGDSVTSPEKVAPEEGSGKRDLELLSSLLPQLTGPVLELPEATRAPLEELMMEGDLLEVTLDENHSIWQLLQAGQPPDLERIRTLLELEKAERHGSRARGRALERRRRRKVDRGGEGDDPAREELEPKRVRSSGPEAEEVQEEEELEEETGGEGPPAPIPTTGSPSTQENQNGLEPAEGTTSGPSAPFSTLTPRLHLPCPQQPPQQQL

binding result: binds
B1: Flag-tagged TBK1 (pBOBI-3×Flag-hTBK1) (enzyme, human, UniProt Q9UHD2 1-729, looked up)
chain: MQSTSNHLWLLSDILGQGATANVFRGRHKKTGDLFAIKVFNNISFLRPVDVQMREFEVLKKLNHKNIVKLFAIEEETTTRHKVLIMEFCPCGSLYTVLEEPSNAYGLPESEFLIVLRDVVGGMNHLRENGIVHRDIKPGNIMRVIGEDGQSVYKLTDFGAARELEDDEQFVSLYGTEEYLHPDMYERAVLRKDHQKKYGATVDLWSIGVTFYHAATGSLPFRPFEGPRRNKEVMYKIITGKPSGAISGVQKAENGPIDWSGDMPVSCSLSRGLQVLLTPVLANILEADQEKCWGFDQFFAETSDILHRMVIHVFSLQQMTAHKIYIHSYNTATIFHELVYKQTKIISSNQELIYEGRRLVLEPGRLAQHFPKTTEENPIFVVSREPLNTIGLIYEKISLPKVHPRYDLDGDASMAKAITGVVCYACRIASTLLLYQELMRKGIRWLIELIKDDYNETVHKKTEVVITLDFCIRNIEKTVKVYEKLMKINLEAAELGEISDIHTKLLRLSSSQGTIETSLQDIDSRLSPGGSLADAWAHQEGTHPKDRNVEKLQVLLNCMTEIYYQFKKDKAERRLAYNEEQIHKFDKQKLYYHATKAMTHFTDECVKKYEAFLNKSEEWIRKMLHLRKQLLSLTNQCFDIEEEVSKYQEYTNELQETLPQKMFTASSGIKHTMTPIYPSSNTLVEMTLGMKKLKEEMEGVVKELAENNHILERFGSLTMDGGLRNVDCL
notes: TBK1, kinase; hTBK1 in the construct's name; The end of the tag and the species are read from the printed name of the construct; also called Flag-TBK1; source: HEK293T, transfected, in cytosolic extract; HEK293T, purified (eluted with 3×Flag peptide); not shown: 3×Flag, N-terminal, kept
